{
  "source": "patent US20060241289A1",
  "key": {"[1]": {"biological_target": "TSH receptor coated onto plastic tubes or ELISA plate wells (RSR Ltd) / detergent solubilised TSH receptor", "assay": "125I-TSH on TSHR coated tubes, buffer only"}, "[2]": {"biological_target": "TSH receptor coated onto plastic tubes or ELISA plate wells (RSR Ltd) / detergent solubilised TSH receptor", "assay": "125I-TSH on TSHR coated tubes, buffer only", "remark": "listed apart in the source"}, "[3]": {"biological_target": "TSH receptor coated onto plastic tubes or ELISA plate wells (RSR Ltd) / detergent solubilised TSH receptor", "assay": "125I-TSH on TSHR coated tubes, assay buffer only"}, "[4]": {"biological_target": "TSH receptor coated onto plastic tubes (UniProt P16473)", "assay": "125I-TSH binding to TSHR coated tubes, assay buffer only"}, "[5]": {"biological_target": "TSH receptor coated onto plastic tubes (UniProt P16473)", "assay": "125I-TSH binding to TSHR coated tubes, assay buffer only", "remark": "listed apart in the source"}, "[6]": {"biological_target": "TSH receptor coated onto plastic tubes or ELISA plate wells (RSR Ltd) / detergent solubilised TSH receptor", "assay": "125I-TSH on TSHR coated tubes, healthy blood donor serum pool only"}, "[7]": {"biological_target": "TSH receptor coated onto plastic tubes or ELISA plate wells (RSR Ltd) / detergent solubilised TSH receptor", "assay": "125I-TSH on TSHR coated tubes, healthy blood donor serum pool only", "remark": "listed apart in the source"}, "[8]": {"biological_target": "hTSH receptor expressed on CHO cells (human) (UniProt P16473)", "assay": "cell-based or functional assay"}, "[9]": {"biological_target": "TSH receptor coated onto plastic tubes (UniProt P16473)", "assay": "TSHR coated tubes; 90/672 at 1 U/L; competitor 125I-TSH"}, "[10]": {"biological_target": "TSH receptor coated onto plastic tubes (UniProt P16473)", "assay": "TSHR coated tubes; 90/672 at 2 U/L; competitor 125I-TSH"}, "[11]": {"biological_target": "TSH receptor coated onto plastic tubes (UniProt P16473)", "assay": "TSHR coated tubes; 90/672 at 8 U/L; competitor 125I-TSH"}, "[12]": {"biological_target": "TSH receptor coated onto plastic tubes (UniProt P16473)", "assay": "TSHR coated tubes; 90/672 at 1 U/L; competitor 125I-9D33"}, "[13]": {"biological_target": "TSH receptor coated onto plastic tubes (UniProt P16473)", "assay": "TSHR coated tubes; 90/672 at 2 U/L; competitor 125I-9D33"}, "[14]": {"biological_target": "TSH receptor coated onto plastic tubes (UniProt P16473)", "assay": "TSHR coated tubes; 90/672 at 40 U/L; competitor 125I-TSH"}, "[15]": {"biological_target": "TSH receptor coated onto plastic tubes (UniProt P16473)", "assay": "TSHR coated tubes; 90/672 at 8 U/L; competitor 125I-9D33"}, "[16]": {"biological_target": "TSH receptor coated onto plastic tubes (UniProt P16473)", "assay": "TSHR coated tubes; 90/672 at 40 U/L; competitor 125I-9D33"}, "[17]": {"biological_target": "TSH receptor coated onto plastic tubes or ELISA plate wells (RSR Ltd) / detergent solubilised TSH receptor", "assay": "125I-TSH on TSHR coated tubes, sample diluted in serum"}, "[18]": {"biological_target": "TSH receptor coated onto plastic tubes or ELISA plate wells (RSR Ltd) / detergent solubilised TSH receptor", "assay": "Scatchard analysis, 125I-Fab on TSH receptor coated tubes"}, "[19]": {"biological_target": "TSH receptor coated onto plastic tubes or ELISA plate wells (RSR Ltd) / detergent solubilised TSH receptor", "assay": "125I-TSH on TSHR coated tubes, sample diluted in assay buffer"}, "[20]": {"biological_target": "TSH receptor coated onto plastic tubes or ELISA plate wells (RSR Ltd) / detergent solubilised TSH receptor", "assay": "inhibition of 125I-TSH binding, mean of serum and assay buffer"}},
  "note": "Where two headings read alike, the source gives them in different places.",
  "data": [
    {"substance": "125I-labelled TSH (ligand)", "values": [
      {"measurement": "% of total cpm bound", "setting": "[1]", "value": 14.7, "unit": "%"},
      {"measurement": "% of total cpm bound", "setting": "[2]", "value": 16.3, "unit": "%"},
      {"measurement": "% binding", "setting": "[3]", "value": 12.1, "unit": "%"},
      {"measurement": "% inhibition", "setting": "[3]", "value": 0, "unit": "%"},
      {"measurement": "% 125I-TSH binding", "setting": "[4]", "value": 11.5, "unit": "%"},
      {"measurement": "% 125I-TSH binding", "setting": "[5]", "value": 11.1, "unit": "%"},
      {"measurement": "% of total cpm bound", "setting": "[6]", "value": 14.9, "unit": "%"},
      {"measurement": "% of total cpm bound", "setting": "[7]", "value": 14.7, "unit": "%"}
    ]},
    {"substance": "human TSH (from UniProt P01215 25-116; P01222 21-132) (ligand)", "values": [
      {"measurement": "stimulation of cyclic AMP production in CHO cells transfected with the TSH receptor", "setting": "[8]", "value": 10, "unit": "ng/mL"}
    ]},
    {"substance": "NIBSC 90/672", "values": [
      {"measurement": "Mean cyclic AMP per well; NIBSC 90/672 0.1 units/L (pmols per well)", "setting": "[8]", "value": 1.09},
      {"measurement": "Mean cyclic AMP per well; NIBSC 90/672 0.3 units/L (pmols per well)", "setting": "[8]", "value": 1.49},
      {"measurement": "Mean cyclic AMP per well; NIBSC 90/672 1.0 units/L (pmols per well)", "setting": "[8]", "value": 3.52},
      {"measurement": "Mean cyclic AMP per well; NIBSC 90/672 3.0 units/L (pmols per well)", "setting": "[8]", "value": 8.16}
    ]},
    {"substance": "NIBSC 90/672 (International Standard for thyroid stimulating antibody)", "values": [
      {"measurement": "inhibition of 125I-TSH binding (%)", "setting": "[9]", "value": 12, "unit": "%"},
      {"measurement": "inhibition of 125I-TSH binding (%)", "setting": "[10]", "value": 23, "unit": "%"},
      {"measurement": "inhibition of 125I-TSH binding (%)", "setting": "[11]", "value": 68, "unit": "%"},
      {"measurement": "125I-9D33 bound (% total counts added)", "setting": "[12]", "value": 13, "unit": "%"},
      {"measurement": "inhibition of 125I-9D33 binding (%)", "setting": "[12]", "value": 10, "unit": "%"},
      {"measurement": "125I-9D33 bound (% total counts added)", "setting": "[13]", "value": 11, "unit": "%"},
      {"measurement": "inhibition of 125I-9D33 binding (%)", "setting": "[13]", "value": 28, "unit": "%"},
      {"measurement": "inhibition of 125I-TSH binding (%)", "setting": "[14]", "value": 92, "unit": "%"},
      {"measurement": "125I-9D33 bound (% total counts added)", "setting": "[15]", "value": 7.1, "unit": "%"},
      {"measurement": "inhibition of 125I-9D33 binding (%)", "setting": "[15]", "value": 52, "unit": "%"},
      {"measurement": "125I-9D33 bound (% total counts added)", "setting": "[16]", "value": 4.1, "unit": "%"},
      {"measurement": "inhibition of 125I-9D33 binding (%)", "setting": "[16]", "value": 72, "unit": "%"}
    ]},
    {"substance": "hMAb TSHR1 Fab", "values": [
      {"measurement": "% inhibition", "setting": "[17]", "value": 36, "unit": "%"},
      {"measurement": "mean units/mg (NIBSC 90/672)", "setting": "[17]", "value": 288, "unit": "units/mg"},
      {"measurement": "Ka", "setting": "[18]", "value": "4.5e+10", "unit": "M⁻¹"},
      {"measurement": "mean units/mg (NIBSC 90/672)", "setting": "[19]", "value": 309, "unit": "units/mg"},
      {"measurement": "units/mg (NIBSC 90/672)", "setting": "[19]; Fab at 3 ng/mL", "value": 265, "unit": "units/mg"},
      {"measurement": "units/mg (NIBSC 90/672)", "setting": "[19]; Fab at 10 ng/mL", "value": 291, "unit": "units/mg"},
      {"measurement": "units/mg (NIBSC 90/672)", "setting": "[19]; Fab at 30 ng/mL", "value": 372, "unit": "units/mg"},
      {"measurement": "Units/mg (NIBSC 90/672), inhibition of TSH binding assay", "setting": "[20]", "value": 300, "unit": "Units/mg"},
      {"measurement": "Units/nmole (NIBSC 90/672), inhibition of TSH binding assay", "setting": "[20]", "value": 15, "unit": "Units/nmole"}
    ]}
  ]
}
